assay: yeast display, Sf9 membrane polyspecificity reagent, FACS + sequencing; frameworks hold sequencing errors
Outline: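 Polyreactivity labels are assigned by the sorting gate from which each nanobody was recovered. The gates were low and high (top ~1%), set on anti-HA fluorescence for expression and streptavidin fluorescence for reagent binding. Before sorting, galactose-induced (36–48 hours) yeast display cells were stained for 1 hour at 4 °C with 10% biotinylated, detergent-solubilized Sf9 membrane reagent.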

Row | Sequence | polyreactivity (PSR sort gate)
1 | QVQLVESGGGLVQAGGSLRLSCAASGGIFTLNGMGWYRQAPGKERELVAVITSSGGSTYYADSVKGRFTISRDNAKNTVYLQMNSLKPEDTAVYYCAAQLVRYVGYYRFDYWGQGTQVTVSS | low polyreactivity
2 | QVQLVESGGGLVQAGGSLRLSCAASGGIFTYYAMGWYRQAPGKERELVAAISASGGSTYYADSVKGRFTISRDNAKNTVYLQMNSLKPEDTAVYYCAAGLPYGYGYDYWGQGTQVTVSS | low polyreactivity
3 | QVQLVESGGGLVQAGGSLRLSCAASGGIFTYYVLGWYRQAPGKERELVAAITIGDSTYYADSVKGRFTISRDNAKNTVYVQINSLKPEDTAVYYCNADPYNTWGFTNGYWGQGTQVTVSS | low polyreactivity
4 | QVQLVESGGGLVQAGGSLRLSCAASGGIFVTYAMVWYRQAPGKERELVAAITSGGTTYYADSVKGRFTISRDNAKNTVYIQMNSLTPEDTAVYYCAARYYPGYYYPPLDYWGQGSQVTVSS | low polyreactivity
5 | QVQLVESGGGLVQAGGSLRLSCAASGGIFWRYAMGWYRQAPGKERELVAAISSRGGSTYYADSVKGRFTISRDNAKNTVYLPMNSLKPEYTAVYYCAAAFLSRVQGYDSWGQGTQVTVSS | high polyreactivity
6 | QVQLVESGGGLVQAGGSLRLSCAASGGIFWVNAMGWYRQAPGKERELVAAISWSDDNTYYADSVKGRFTISRDNAKNTVYLQMNSLKPEDTAVYYCAKDFYDYGSFYWYEYWGQGTQVTVSS | high polyreactivity
7 | QVQLVESGGGLVQAGGSLRLSCAASGGIFYGYAMGWYRQAPGKERELVAAISDSGGSTYYADSVKGRFTNSRDNAKYTGYVQMNSLKPEVTAVYYCATDAPVGGYVSEGDYWGQGTQVTVSS | low polyreactivity
8 | QVQLVESGGGLVQAGGSLRLSCAASGGIFYPNVKGWYRQAPGKEREFVAAISSSSGSTYADSVKGRFTISRDNAKNTVYLQMNSLKPDDTAVFYCAAEENWWGIWVRYDYWVQGTQVTVSS | low polyreactivity
9 | QVQLVESGGGLVQAGGSLRLSCAASGGIFYPYAMGWYRQAPGKERELVASIDVSDGSTYYADSVKGRFTISRDNAKNTVYLQMNSLKPEDTAVYYCAADRYSKAIDFEGDYWGQGTQVTVSS | low polyreactivity
10 | QVQLVESGGGLVQAGGSLRLSCAASGGIFYRYAMGWYRQAPGKEREFVASIDVSGGSTHYADSVKGRFTISRDNAKNTVDLQMNSLKPEDTAVHYCAARVYWRSSRYYYWGHGTQVTVSS | high polyreactivity
11 | QVQLVESGGGLVQAGGSLRLSCAASGGIFYSYAMGWYRQAPGKERELVAAISGRGGSTYYADSVKGRFTISRDNAKNTVYLQMNSLKPEDTAVYYCNALGSQRYDYWGQGTQVTVSS | high polyreactivity
12 | QVQLVESGGGLVQAGGSLRLSCAASGGIFYYNAMGWYRQAPGKERELLAAITFSGGGTYYADSVKGRFTISRDNAKNTVYFQMNSLKPEDTAVNYCAAKFYRYAWFLGYDYWGQGTQVTVSS | high polyreactivity
13 | QVQLVESGGGLVQAGGSLRLSCAASGGIFYYYTMGWYRQAPGKERELVAVISSSGSTYYADSVKGRFTISRDNAKNTVYLQMNSLKPEDTAVYYCNALGWYGDYDYWGQGTQVTVSS | low polyreactivity
14 | QVQLVESGGGLVQAGGSLRLSCAASGGIISMYDIGWYRQAQGKERQLVAAISQSGGSTYYADYVKGRFTISRDNAKNTVYLQMNSLNPEVTGVYYCAADLYLTLIGFIFTGEEYWGQGTQGTVSS | low polyreactivity
15 | QVQLVESGGGLVQAGGSLRLSCAASGGILDTYAMGWDRQAPGKERELVAAITSGGNTNYADSVKGRFTISRDNAKNTFYLQMNSLKPEDTAVYFCNVVSWYYFFRPWEYDYWGQGTQVTVSS | low polyreactivity
16 | QVQLVESGGGLVQAGGSLRLSCAASGGILRDYAMGWSRQAPGKERELVAAISRGGRTNYADSVKGRFTISRDYSKNTVYLQLNSLKPEDTAVYYCAKRYARGENDYWGQGTQVNVSS | high polyreactivity
17 | QVQLVESGGGLVQAGGSLRLSCAASGGISLYYVMGWYRQAPGKERELVADISADDSTNYADSVKGRFTISRDNAKNTVYLQMNSLKPEDTAVYYCAAVPGLFYLPYDYWGQGTQVTVSS | low polyreactivity
18 | QVQLVESGGGLVQAGGSLRLSCAASGGISMDNVMGWYRQAPGKERELVAAISKSGGRTFYADSVKGRFTISRDNAKNTVYLQMNSLKPEDTAVYYCAKLYKSKPYWYEHEYWGQGTQVTVSS | high polyreactivity
19 | QVQLVESGGGLVQAGGSLRLSCAASGGISYRYAMGWYRQAPGKERELVARISRGTGTHYADSVKGRFTISRDNAKNTVYLQMNSLTPEDTAVYYCAAESYRGYYLSLNYWGQGTQVTVSS | high polyreactivity
20 | QVQLVESGGGLVQAGGSLRLSCAASGGIVSINAMGWYRQAPGKERELVAAIRWNSGRTYYADSVKGRFTISRDNAKNTVYIQMNSLKPEDTAVYYCAVRDYISWEDYYWGQGTQVTVSS | high polyreactivity
21 | QVQLVESGGGLVQAGGSLRLSCAASGGIYLDYAMGWYRQAPGKERELVADINSGADTSYADSVKGRFTISRDNAKNTVYLQMNSLKPEDTAVYYCADDIYVFNGQVYSYGYGYWGQGTQVTVSS | low polyreactivity

Row | Sequence | polyreactivity (PSR sort gate)
22 | QVQLVESGGGLVQAGGSLRLSCAASGGIYYYAMGWDRQAPGKERELVAAISSGGGNTNYADSVKGRFTISRDNAKNTVYLQMNSLKPVDTAVYYCAAEHPVTYRTSKFDYWGQGTQVTVSS | low polyreactivity
23 | QVQLVESGGGLVQAGGSLRLSCAASGGIYYYAMGWYRPAPGKERELVSAISSGGGNTNYADSVKGRFTISRDNAKNTVYLQMISLKPEDTAVYYCYADRAVVLSTTVWGEYDYWGQGTQVNVSS | low polyreactivity
24 | QVQLVESGGGLVQAGGSLRLSCAASGGIYYYAMGWYRQAPGKERELVAAISSGGGNTNYADSVKGRFTLSRDNAKNTVYLQMNSLKPEDTAVYYCATDGFIPTYSYTEIGYDYWGQGTQVTVSS | low polyreactivity
25 | QVQLVESGGGLVQAGGSLRLSCAASGGLFIRYGMGWYRPAPGKERELVAGIDSGGGTNYADSVKGRFTISRDNAKNTVYLQMNSLKPEDTAVYYCARRQGYGFLYGRPYGYWGQGTQVTVSS | low polyreactivity
26 | QVQLVESGGGLVQAGGSLRLSCAASGGMGWYRQAPGKERELVATISSVGSTNYADSVKGRFTISRDNAKNTVYLQMNSLKPEDTAVYYCNATGVQYFLYGYWGQGTQVTVSS | low polyreactivity
27 | QVQLVESGGGLVQAGGSLRLSCAASGGNFKQYAMGWYRQAPGKERELVAAISRRGGSTYYADSVKGRFTISRDNAKNTVYLQMNSLKPEDTAVYYCAAPGPTQSTQRGGYWGQGTQVTVSS | high polyreactivity
28 | QVQLVESGGGLVQAGGSLRLSCAASGGPFKRNAMGWSRQAPGKERELVAAISTSGATTYYADSVKGRFTISRDTAKNTVYLQMNSLKPEDTAVYYCAARIRGYVYKGMNYWGQGTQVTVSS | high polyreactivity
29 | QVQLVESGGGLVQAGGSLRLSCAASGGPFTYYTMGCYRQAPGKERELVAAISTGGRTYYADSVKGRFTISRDNAKNTVYLQMNCLKAEATAVYYCYPLYDETDVLGEFDYWGQGTQVTVSS | low polyreactivity
30 | QVQLVESGGGLVQAGGSLRLSCAASGGPFWYYAMGWYRQAPGKERELVAAITRGGSTSYADSVKGRFTISRDNAKKTVYLQMNSLKPEDTAVYYCNARPYSSYWRYNYWGQGTQVTVSS | high polyreactivity
31 | QVQLVESGGGLVQAGGSLRLSCAASGGTCSFYTMGWYRQAPGKERELVAAISRSGGRTYYADSVKGRFTISRDNAQNTVYLQMNSLKPEDTAVYYCAAERFSNIYTTMGYWGQGTQVTVSS | high polyreactivity
32 | QVQLVESGGGLVQAGGSLRLSCAASGGTFAANDMGWYRQAPGKEREFVAAIDWSGGSTYYADSVKGRFTISRDNAKNTVYLQMNSLKPVDTAVYYCNAGPAVRSAYSTPYYDYWGQGTQVTVSS | low polyreactivity
33 | QVQLVESGGGLVQAGGSLRLSCAASGGTFAFNAMGWYRQAPGKERELVATIRYSGGSTYADSVKGRFTISRDNAKNTVYLQMNSLKPEDTAVYYCAADVIYWFSGEYDYWGQGTQVTVSS | low polyreactivity
34 | QVQLVESGGGLVQAGGSLRLSCAASGGTFAVNAMGWYRQAPGKEREFVAAISSRGSTSYADSVKGRFTISRDNAKNTVYLQMNSLKPEDTAVYYCAKRQGYWFDYWGQGTQVTVSS | high polyreactivity
35 | QVQLVESGGGLVQAGGSLRLSCAASGGTFCRNVMGWYRQAPGKERELVAAISRRGSSTYYADSVKGRFTISRDNAKNTVYLQMNSLKPEDTAVYYCARDQYTGADEAGDDYWGQGTQVTVSS | high polyreactivity
36 | QVQLVESGGGLVQAGGSLRLSCAASGGTFDYNAMGWYRQAPGKERELVAAITSGASTYYADSVKGRFTISRDNAKNTVYLQMNSLKPEDTAVYYCAKGPTPGYDYWGQGTQVTVSS | low polyreactivity
37 | QVQLVESGGGLVQAGGSLRLSCAASGGTFDYYAMGWYRQAPGKERELVAAITRGSTNYADSVKGRFTISRDNAKNTVYFQMNSLKPEDTAVYYCAARGRFVTPQPSYDYWGQGTQVTVSS | high polyreactivity
38 | QVQLVESGGGLVQAGGSLRLSCAASGGTFEYNAMGWYRQAPGKERELVAAISKSGGRTYFADSVKGRFTISRDNAMNTVYLQMNSLKPEDTAVYYCAKRYVWGQGTQVTVSS | high polyreactivity
39 | QVQLVESGGGLVQAGGSLRLSCAASGGTFEYYAMGWDRQAPGKESELVAGITGGGVSTYYADSVKGRFTISRDNAKNPVYLQKNSLKPEDTAVYYSAAAYYQDNFWWYYYWGQGTQVNVSS | high polyreactivity
40 | QVQLVESGGGLVQAGGSLRLSCAASGGTFEYYPMGWYRQAPGKETEMVAGITWGGVSTYYADSVKGRFTLSRDTAKNTVYLQMNSLKPEDTSVFYCAAAYSQDNVWWYYYWGQGTQVTVSS | high polyreactivity
41 | QVQLVESGGGLVQAGGSLRLSCAASGGTFFLYAMGWYRQAPGTERELVADISSGDSTNYADSVKGRFTISRDNAKNTVYLQMNSLKPEDTAVYYCAADGKLEYVNGYNLYYWGQGTQVTVSS | low polyreactivity
